Source: the RNAGym collection of RNA variant scans (doi:10.7554/elife.80360)

B1: Twister Ribozyme (parent)
chain: AACACUGCCAAUGCCGGUCCCAAGCCCGGAUAAAAGUGGAGGGGGCGG

Variants of: B1
Test: self-cleavage, relative activity (ratio to wild type); higher = more cleavage; co-transcriptional

Variant	self-cleavage
AACACUGCCAAUGCCGGUCCCAAGCCCGGAUAAAAGUGGGGGGGGCGU [A40G G48U]	0.131
AACACUGCCAAUGCCGGUCCCAAGCCCGGAUAAAAGUGGUGGGGGGGG [A40U C46G]	0.16
AACACUGCCAAUGCCGGUCCCAAGCCCGGAUAAAAGUGGUGGGGGUGG [A40U C46U]	0.163
AACACUGCCAAUGCCGGUCCCAAGCCCGGAUAAAAGUGGUCGGGGCGG [A40U G41C]	0.17
AACACUGCCAAUGCCGGUCCCAAGCCCGGAUAAAAGUGGUUGGGGCGG [A40U G41U]	0.145
AACACUGCCAAUGCCGGUCCCAAGCCCGGAUAAAAGUGGUGAGGGCGG [A40U G42A]	0.136
AACACUGCCAAUGCCGGUCCCAAGCCCGGAUAAAAGUGGUGCGGGCGG [A40U G42C]	0.157
AACACUGCCAAUGCCGGUCCCAAGCCCGGAUAAAAGUGGUGGUGGCGG [A40U G43U]	0.0936
AACACUGCCAAUGCCGGUCCCAAGCCCGGAUAAAAGUGGUGGGUGCGG [A40U G44U]	0.183
AACACUGCCAAUGCCGGUCCCAAGCCCGGAUAAAAGUGGUGGGGACGG [A40U G45A]	0.192
AACACUGCCAAUGCCGGUCCCAAGCCCGGAUAAAAGUGGUGGGGCCGG [A40U G45C]	0.129
AACACUGCCAAUGCCGGUCCCAAGCCCGGAUAAAAGUGGUGGGGUCGG [A40U G45U]	0.177
AACACUGCCAAUGCCGGUCCCAAGCCCGGAUAAAAGUGGUGGGGGCAG [A40U G47A]	0.164
AACACUGCCAAUGCCGGUCCCAAGCCCGGAUAAAAGUGGUGGGGGCGA [A40U G48A]	0.159
AACACUGCCAAUGCCGGUCCCAAGCCCGGAUAAAAGUGGUGGGGGCGC [A40U G48C]	0.209
AACACUGCCAAUGCCGGUCCCAAGCCCGGAUAAAAGUGGUGGGGGCGU [A40U G48U]	0.21
AACACUGCCAAUGCCGGUCCCAAGCCCGGAUAAAAGUGGAAGGGGCGG [G41A]	0.665
AACACUGCCAAUGCCGGUCCCAAGCCCGGAUAAAAGUGGAAGGGGAGG [G41A C46A]	0.356
AACACUGCCAAUGCCGGUCCCAAGCCCGGAUAAAAGUGGAAGGGGGGG [G41A C46G]	0.429
AACACUGCCAAUGCCGGUCCCAAGCCCGGAUAAAAGUGGAAGGGGUGG [G41A C46U]	0.612
AACACUGCCAAUGCCGGUCCCAAGCCCGGAUAAAAGUGGAAAGGGCGG [G41A G42A]	0.129
AACACUGCCAAUGCCGGUCCCAAGCCCGGAUAAAAGUGGAACGGGCGG [G41A G42C]	0.094
AACACUGCCAAUGCCGGUCCCAAGCCCGGAUAAAAGUGGAAUGGGCGG [G41A G42U]	0.156
AACACUGCCAAUGCCGGUCCCAAGCCCGGAUAAAAGUGGAAGCGGCGG [G41A G43C]	0.14
AACACUGCCAAUGCCGGUCCCAAGCCCGGAUAAAAGUGGAAGUGGCGG [G41A G43U]	0.135
AACACUGCCAAUGCCGGUCCCAAGCCCGGAUAAAAGUGGAAGGAGCGG [G41A G44A]	0.483
AACACUGCCAAUGCCGGUCCCAAGCCCGGAUAAAAGUGGAAGGCGCGG [G41A G44C]	0.205

Variant	self-cleavage
AACACUGCCAAUGCCGGUCCCAAGCCCGGAUAAAAGUGGAAGGUGCGG [G41A G44U]	0.228
AACACUGCCAAUGCCGGUCCCAAGCCCGGAUAAAAGUGGAAGGGGCUG [G41A G47U]	0.236
AACACUGCCAAUGCCGGUCCCAAGCCCGGAUAAAAGUGGAAGGGGCGU [G41A G48U]	0.511
AACACUGCCAAUGCCGGUCCCAAGCCCGGAUAAAAGUGGACGGGGCGG [G41C]	0.326
AACACUGCCAAUGCCGGUCCCAAGCCCGGAUAAAAGUGGACGGGGAGG [G41C C46A]	0.254
AACACUGCCAAUGCCGGUCCCAAGCCCGGAUAAAAGUGGACGGGGGGG [G41C C46G]	0.286
AACACUGCCAAUGCCGGUCCCAAGCCCGGAUAAAAGUGGACAGGGCGG [G41C G42A]	0.125
AACACUGCCAAUGCCGGUCCCAAGCCCGGAUAAAAGUGGACCGGGCGG [G41C G42C]	0.129
AACACUGCCAAUGCCGGUCCCAAGCCCGGAUAAAAGUGGACUGGGCGG [G41C G42U]	0.167
AACACUGCCAAUGCCGGUCCCAAGCCCGGAUAAAAGUGGACGGUGCGG [G41C G44U]	0.147
AACACUGCCAAUGCCGGUCCCAAGCCCGGAUAAAAGUGGACGGGUCGG [G41C G45U]	0.429
AACACUGCCAAUGCCGGUCCCAAGCCCGGAUAAAAGUGGACGGGGCUG [G41C G47U]	0.149
AACACUGCCAAUGCCGGUCCCAAGCCCGGAUAAAAGUGGAUGGGGCGG [G41U]	0.752
AACACUGCCAAUGCCGGUCCCAAGCCCGGAUAAAAGUGGAUGGGGGGG [G41U C46G]	0.509
AACACUGCCAAUGCCGGUCCCAAGCCCGGAUAAAAGUGGAUGGGGUGG [G41U C46U]	0.68
AACACUGCCAAUGCCGGUCCCAAGCCCGGAUAAAAGUGGAUAGGGCGG [G41U G42A]	0.136
AACACUGCCAAUGCCGGUCCCAAGCCCGGAUAAAAGUGGAUGUGGCGG [G41U G43U]	0.147
AACACUGCCAAUGCCGGUCCCAAGCCCGGAUAAAAGUGGAUGGCGCGG [G41U G44C]	0.218
AACACUGCCAAUGCCGGUCCCAAGCCCGGAUAAAAGUGGAUGGGUCGG [G41U G45U]	0.25
AACACUGCCAAUGCCGGUCCCAAGCCCGGAUAAAAGUGGAUGGGGCAG [G41U G47A]	0.349
AACACUGCCAAUGCCGGUCCCAAGCCCGGAUAAAAGUGGAUGGGGCGC [G41U G48C]	0.738
AACACUGCCAAUGCCGGUCCCAAGCCCGGAUAAAAGUGGAUGGGGCGU [G41U G48U]	0.584
AACACUGCCAAUGCCGGUCCCAAGCCCGGAUAAAAGUGGAGAGGGCGG [G42A]	0.516
AACACUGCCAAUGCCGGUCCCAAGCCCGGAUAAAAGUGGAGAGGGAGG [G42A C46A]	0.251
AACACUGCCAAUGCCGGUCCCAAGCCCGGAUAAAAGUGGAGAGGGUGG [G42A C46U]	0.349
AACACUGCCAAUGCCGGUCCCAAGCCCGGAUAAAAGUGGAGACGGCGG [G42A G43C]	0.113
AACACUGCCAAUGCCGGUCCCAAGCCCGGAUAAAAGUGGAGAGAGCGG [G42A G44A]	0.377
